Consider two substances from patent US6541002.

In the data set the target is Vpr-Gal4AD chimeric protein (UniProt P12520).

In the case of UDG-Gal4BD chimeric protein UDG F225G, the “beta-galactosidase activity, liquid culture of double transformant yeast, relative to wild type UDG-Gal4BD” value is recorded as “exhibited only 7% of the ability to interact with Vpr-Gal4AD chimeric protein”.
Turning to UDG-Gal4BD chimeric protein UDG W222G, the “beta-galactosidase activity, liquid culture of double transformant yeast, relative to wild type UDG-Gal4BD” value was “exhibited less than half (43%) of the ability to interact with Vpr-Gal4AD chimeric protein”.
